Measured values from patent publication US20240352438A1, “MEANS AND METHODS FOR DETOXIFYING OCHRATOXIN A” (DSM Austria GmbH, priority 2021, published 2024).

Tests used:
[1] = Enzymatic activity comparison: activity remaining after 65° C. for 10 min at pH 6.0, relative to SEQ ID NO: 1; format: physicochemical
Method: To compare the temperature behavior and thermostability of selected enzymes to one another, enzyme was incubated at 65° C. for 10 min at pH 6.0. The enzymatic activity remaining after incubation was compared to the remaining activity of the enzyme of SEQ ID NO: 1 after incubation, the latter being set to 100%, see Table 16.

[2] = OTA detoxification activity assay (specific activity, fluorescence reduction ex/em 390/450 nm); format: biochemical; conditions: SEQ ID NO: 1 = 100%
Method in brief: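 Recombinant enzyme preparation with 200 ng/mL OTA in 100 mM sodium phosphate, at pH 6.0 and pH 7.5, 37° C. Degradation followed as the fall in fluorescence at ex/em 390/450 nm. Specific activity taken from the initial linear slope; one unit degrades 1 μmol OTA per min at a starting OTA of […].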

Molecule	Enzymatic activity remaining after incubation, compared to SEQ ID NO: 1 (set to 100%) [1]	Specific OTA detoxification activities in % compared to the enzyme of SEQ ID NO: 1, pH 6.0 [2]	Specific OTA detoxification activities in % compared to the enzyme of SEQ ID NO: 1, pH 7.5 [2]
195 (protein, exemplary polypeptide) MTTRTRILTAFLSLLAANACAADAAPAAPHTVVLRAARMFDGASGKLVDHPQLTIVGNKIVRIAQGDKAEVPAGAEVVDLGDATLLPGFIDAHVHLSGQSSDNWYGDFFDNMMRFPAEQALYGAYYARITLEAGFTSVRDVGSTDWVALGLRNAIDAGKVPGPRMLVSNYAVGSTGGHADQDPIPPHKLPLAGPLQGVCNGPEECRAAVRYQIKYGANVIKFMPSGGVLSLSDPVDAPELSQDEMNAVIGESHAWGRKVAAHAHGDKAAKMAVAAGVDSIEHGSFIEDDTLRAMKAKNVYLVPTISAIAHVEEKIGTFPPVIAEKGRAAAAHLRQTFRHAVQIGVPIALGTDAGVPAHGSNAREFRYMVENGLTPAQALLAGTANAARLLGTFDRVGTLEAGKLADVVAVPGNPIADITVTERPLFVMKDGVVVRRDAVR	38%	148%	100%
198 (protein, exemplary polypeptide) MTTRTRILTAFLSLLAANACAADAAPAAPHTVVLRAARMFDGASGKLVDHPQLTIVGNKIVRIAQGDKAEVPAGAEVVDLGDATLLPGFIDAHVHLSGQSSDNFYGDFFDNMMRFPAEQALYGAYYARITLEAGFTSVRDVGSTDWVALGLRNAIDAGKVPGPRMLVSNYAVGSTGGHADQDPIPPHKLPLAGPLQGVCNGPEECRAAVRYQIKYGANVIKFMPSGGVLSLSDPVDAPELSQDEMNAVIGESHAWGRKVAAHAHGDKAAKMAVAAGVDSIEHGSFIEDDTLRAMKAKNVYLVPTISAIAHVEEKIGTFPPVIAEKGRAAAAHLRQTFRHAVQIGVPIALGTDAGVGAHGSNAREFRYMVENGLTPAQALLAGTANAARLLGTFDRVGTLEAGKLADVVAVPGNPIADITVTERPLFVMKDGVVVRRDAVR	55%	111%	84%
207 (protein, exemplary polypeptide) MTTRTRILTAFLSLLAANACAADAAPAAPKTVVLRAARMFDGASGKLVDHPQLTIVGNKIVRIAQGDKAEVPAGAEVVDLGDATLLPGFIDAHVHLSGQSSDNWYGDFFDNMMRFPAEQALYGAYYARITLEAGFTSVRDVGSTDWVALGLRNAIDAGKVPGPRMLVSNYAVGSTGGHADQDPIPPHKLPLAGPLQGVCNGPEECRAAVRYQIKYGANVIKFMPSGGVLSLSDPVDAPELSQDEMNAVIGESHAWGRKVAAHAHGDKAAKMAVAAGVDSIEHGSFIEDDTLRAMKAKNVYLVPTISAIAHVEEKIGTFPPVIAEKGRAAAAHLRQTFRHAVQIGVPIALGTDAGVGAHGSNAREFRYMVENGLTPAQALLAGTANAARLLGTFDRVGTLEAGKLADVVAVPGNPIADITVTERPLFVMKDGVVVRRDAVR	37%	87%	72%
203 (protein, exemplary polypeptide) MTTRTRILTAFLSLLAANACAADAAPAAPHTVVLRAARMFDGASGKLVDHPQLTIVGNKIVRIAQGDKAEVPAGAEVVDLGDATLLPGFIDAHVHLSGQSSDNWYGDFFDNMMRFPAEQALYGAYYARITLEAGFTSVRDVGSTDWVALGLRNAIDAGKVPGPRMLVSNYAVGSTGGHADQDPIPPHKLPLAGPLQGVCNGPEECRAAVRYQIKYGANVIKFMPSGGVLSLSDPVDAPELSQDEMNAVIGESHAWGRKVAAHAHGDKAAKMAVAAGVDSIEHGSFIEDDTLRAMKAKNVYLVPTISAIAHVEEKIGTFPPVMAEKGRAAAAHLRQTFRHAVQIGVPIALGTDAGVGAHGSNAREFRYMVENGLTPAQALLAGTANAARLLGTFDRVGTLEAGKLADVVAVPGNPIADITVTERPLFVMKDGVVVRRDAVR	10%	100%	70%
197 (protein, exemplary polypeptide) MTTRTRILTAFLSLLAANACAADAAPAAPHTVVLRAARMFDGASGKLVDHPQLTIVGNKIVRIAQGDKAEVPAGAEVVDLGDATLLPGFIDAHVHLSGQSSDNWYGDFFDNMMRFPAEQALYGAYYARITLEAGFTSVRDVGSTDWVALGLRNAIDAGKVPGPRMLVSNYAVGSTGGHADQDPIPPHKLPLAGPLQGVCNGPEECRAAVRYQIKYGANVIKFMPSGGVLSLSDPVDAPELSQDEMNAVIGESHAWGRKVAAHAHGDKAAKMAVAAGVDSIEHGSFIEDDTLRAMKAKNVYLVPTISAIAHVEEKIGTFPPVIAEKGRAAAAHLRQTFRHAVQIGVPIALGTDAGVYAHGSNAREFRYMVENGLTPAQALLAGTANAARLLGTFDRVGTLEAGKLADVVAVPGNPIADITVTERPLFVMKDGVVVRRDAVR	29%	59%	29%
200 (protein, exemplary polypeptide) MTTRTRILTAFLSLLAANACAADAAPAAPHTVVLRAARMFDGASGKLVDHPQLTIVGNKIVRIAQGDKAEVPAGAEVVDLGDATLLPGFIDAHVHLSGQSSDNPYGDFFDNMMRFPAEQALYGAYYARITLEAGFTSVRDVGSTDWVALGLRNAIDAGKVPGPRMLVSNYAVGSTGGHADQDPIPPHKLPLAGPLQGVCNGPEECRAAVRYQIKYGANVIKFMPSGGVLSLSDPVDAPELSQDEMNAVIGESHAWGRKVAAHAHGDKAAKMAVAAGVDSIEHGSFIEDDTLRAMKAKNVYLVPTISAIAHVEEKIGTFPPVIAEKGRAAAAHLRQTFRHAVQIGVPIALGTDAGVGAHGSNAREFRYMVENGLTPAQALLAGTANAARLLGTFDRVGTLEAGKLADVVAVPGNPIADITVTERPLFVMKDGVVVRRDAVR	88%	18%	25%
202 (protein, exemplary polypeptide) MTTRTRILTAFLSLLAANACAADAAPAAPHTVVLRAARMFDGASGKLVDHPQLTIVGNKIVRIAQGDKAEVPAGAEVVDLGDATLLPGFIDAHVHLSGQSSDNWYGDFFDNMMRFPAEQALYGAYYARITLEAGFTSVRDVGSTDWVALGLRNAIDAGKVPGPRMLVSNYAVGSTGGHADQDPIPPHKLPLAGPLQGVCNGPEECRAAVRYQIKYGANVIKFMPSGGVLSLSDPVDAPELSQDEMNAVIGESHAWGRKVAAHAHGDKAAKMAVAAGVDSIEHGSFIEDDTLRAMKAKNVYLVPTISAIAHVEEKIGTFPPVLAEKGRAAAAHLRQTFRHAVQIGVPIALGTDAGVGAHGSNAREFRYMVENGLTPAQALLAGTANAARLLGTFDRVGTLEAGKLADVVAVPGNPIADITVTERPLFVMKDGVVVRRDAVR	25%	59%	47%
196 (protein, exemplary polypeptide) MTTRTRILTAFLSLLAANACAADAAPAAPHTVVLRAARMFDGASGKLVDHPQLTIVGNKIVRIAQGDKAEVPAGAEVVDLGDATLLPGFIDAHVHLSGQSSDNWYGDFFDNMMRFPAEQALYGAYYARITLEAGFTSVRDVGSTDWVALGLRNAIDAGKVPGPRMLVSNYAVGSTGGHADQDPIPPHKLPLAGPLQGVCNGPEECRAAVRYQIKYGANVIKFMPSGGVLSLSDPVDAPELSQDEMNAVIGESHAWGRKVAAHAHGDKAAKMAVAAGVDSIEHGSFIEDDTLRAMKAKNVYLVPTISAIAHVEEKIGTFPPVIAEKGRAAAAHLRQTFRHAVQIGVPIALGTDAGVVAHGSNAREFRYMVENGLTPAQALLAGTANAARLLGTFDRVGTLEAGKLADVVAVPGNPIADITVTERPLFVMKDGVVVRRDAVR	57%	48%	58%
206 (protein, exemplary polypeptide) MTTRTRILTAFLSLLAANACAADAAPAAPETVVLRAARMFDGASGKLVDHPQLTIVGNKIVRIAQGDKAEVPAGAEVVDLGDATLLPGFIDAHVHLSGQSSDNWYGDFFDNMMRFPAEQALYGAYYARITLEAGFTSVRDVGSTDWVALGLRNAIDAGKVPGPRMLVSNYAVGSTGGHADQDPIPPHKLPLAGPLQGVCNGPEECRAAVRYQIKYGANVIKFMPSGGVLSLSDPVDAPELSQDEMNAVIGESHAWGRKVAAHAHGDKAAKMAVAAGVDSIEHGSFIEDDTLRAMKAKNVYLVPTISAIAHVEEKIGTFPPVIAEKGRAAAAHLRQTFRHAVQIGVPIALGTDAGVGAHGSNAREFRYMVENGLTPAQALLAGTANAARLLGTFDRVGTLEAGKLADVVAVPGNPIADITVTERPLFVMKDGVVVRRDAVR	42%	168%	112%
201 (protein, exemplary polypeptide) MTTRTRILTAFLSLLAANACAADAAPAAPHTVVLRAARMFDGASGKLVDHPQLTIVGNKIVRIAQGDKAEVPAGAEVVDLGDATLLPGFIDAHVHLSGQSSDNYYGDFFDNMMRFPAEQALYGAYYARITLEAGFTSVRDVGSTDWVALGLRNAIDAGKVPGPRMLVSNYAVGSTGGHADQDPIPPHKLPLAGPLQGVCNGPEECRAAVRYQIKYGANVIKFMPSGGVLSLSDPVDAPELSQDEMNAVIGESHAWGRKVAAHAHGDKAAKMAVAAGVDSIEHGSFIEDDTLRAMKAKNVYLVPTISAIAHVEEKIGTFPPVIAEKGRAAAAHLRQTFRHAVQIGVPIALGTDAGVGAHGSNAREFRYMVENGLTPAQALLAGTANAARLLGTFDRVGTLEAGKLADVVAVPGNPIADITVTERPLFVMKDGVVVRRDAVR	54%	134%	121%
